Experimental data as given in article PMC8329073, “A kinetically controlled platform for ligand-oligonucleotide transduction”.

Assays:
PDGF-BB = PDGF-BB (human, UniProt P01127 82-190); experiment: strand-displacement fluorescence (Rep-2); 50 nM PDGF; 5 mM Mg2+; 20 mM Tris-HCl pH 7.5 (22 °C), 100 mM NaCl, 0.1 mM EDTA, 5 mM MgCl2 (20 mM MgCl2 for DNAzyme), room temperature; indirect read-out by strand-displacement fluorescence; details: protein: recombinant; chain copies: 2; hairpin, 2-bp stem
Thrombin = Thrombin (UniProt P00734;P00734 328-363;364-622); experiment: strand-displacement fluorescence (Rep-2); 2-500 nM thrombin; LOD 0.96 nM; 5 mM Mg2+; 20 mM Tris-HCl pH 7.5 (22 °C), 100 mM NaCl, 0.1 mM EDTA, 5 mM MgCl2 (20 mM MgCl2 for DNAzyme), room temperature; indirect read-out by strand-displacement fluore

Sequence of PDGF-BB (P01127 82-190): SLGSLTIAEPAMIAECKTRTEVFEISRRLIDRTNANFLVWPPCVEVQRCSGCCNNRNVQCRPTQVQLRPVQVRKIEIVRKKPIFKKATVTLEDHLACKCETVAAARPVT

Binder	binding result (PDGF-BB)	binding result (Thrombin)
Apt-PDGF-2bp (structured_DNA) DNA: ATGTCAACGTTGGCTACGGCACGTAGAGCATCACCATGATCCTTGGATAGGTAGGGTACGCT	binds	
Apt-Thr-3bp (= Apt-Thr-OR, Apt-Thr-NOT) (structured_DNA) DNA: ATGTCAACGTTGTCCGTGGTAGGGCAGGTTGGGGTGACTTGGATAGGTAGGGTACGCT		binds
